According to patent US20190330316A1 (PROTHENA BIOSCIENCES, published 2019):
Ends that are not written are not given here.

Tests used:
[1] = target: T1, biotinylated peptide spanning amino acid residues 64-78 of SEQ ID NO:3 (human, also: biotinylated, position not given here); experiment: ELISA, biotinylated peptides on streptavidin plate
T1 peptide: VTQARMVSKSKDGTG
Description: (§1) A range of overlapping biotinylated peptides spanning the entire 383aa 4RON human tau protein were used for mapping the murine 16G7 antibody. Additional peptides were used to model potential post-translational modifications of the C- and N-terminal ends of the protein.
(§2) Biotinylated peptides were bound to separate wells of a streptavidin-coated ELISA plate. The plate was blocked and treated with murine 16G7, followed by incubation with a horseradish peroxidase-conjugated anti-mouse antibody. After thorough washing, OPD was applied to the plate and allowed to develop. The plate was read at 450 nm absorbance. Background subtraction was performed with absorbance values from wells containing no primary antibody, and a threshold for positive binding was set to 0.2 absorbance units.

[2] = target: T2, biotinylated peptide spanning amino acid residues 55-69 of SEQ ID NO:3 (human, also: biotinylated, position not given here); experiment: ELISA, biotinylated peptides on streptavidin plate
T2 peptide: SLEDEAAGHVTQARM
Description: as §1, §2

[3] = target: T3, 4R0N human tau (383 amino acids) (human, UniProt P10636 1-758, radio-iodinated (125I) in the precipitation screen); experiment: precipitation of 125I-labeled tau by hybridoma supernatants
T3 construct: Purified from SF9 cells infected with a tau baculovirus construct; also called 4RON human tau; 4R0N tau
T3 sequence (P10636 other isoform, or with tags, fused parts or gaps limits assumed): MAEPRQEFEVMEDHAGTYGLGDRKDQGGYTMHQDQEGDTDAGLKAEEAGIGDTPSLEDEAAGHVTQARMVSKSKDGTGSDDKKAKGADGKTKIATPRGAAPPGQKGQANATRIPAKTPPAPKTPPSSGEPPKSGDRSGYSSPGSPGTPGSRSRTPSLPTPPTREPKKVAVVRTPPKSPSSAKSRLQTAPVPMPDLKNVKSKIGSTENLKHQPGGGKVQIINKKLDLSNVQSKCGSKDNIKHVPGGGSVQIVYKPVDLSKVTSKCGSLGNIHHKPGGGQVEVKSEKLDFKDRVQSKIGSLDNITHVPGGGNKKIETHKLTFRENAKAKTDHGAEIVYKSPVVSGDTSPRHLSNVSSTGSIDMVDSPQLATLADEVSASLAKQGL
Description: Monoclonal antibody 16G7 was prepared according to a modification of the method of Kohler and Milstein (G. Kohler and C. Milstein (1975) Nature 256:495-497). Human tau containing all 4 microtubule binding repeats, and lacking the N-terminal splice variants (4R0N tau, 383 amino acids) was used in all injections and screening assays. Tau was purified from SF9 cells infected with a tau-containing baculovirus construct (J. Knops et al. (1991) J Cell Biol 115(5):725-33). Six week old ALI mice were injected with 100 μg of purified tau at two week intervals. Tau was emulsified in complete Freund's adjuvant for the first immunization and in incomplete Freund's adjuvant for all subsequent immunizations. Serum samples were taken three days after the third injection to assess the titer of these animals. The highest titer mouse was injected intravenously with 100 μg of tau in 500 μL of PBS two weeks after receiving its third injection. The myeloma fusion occurred three days later using SP2/0 as the fusion partner. Supernatants from wells containing hybridoma cells were screened for their ability to precipitate ¹²⁵I-labeled tau. Tau was radio-iodinated using immobilized glucose oxidase and lactoperoxidase according to the manufacturer's instructions (Bio-Rad). […] The isotypes of 16G7 was determined to be gamma 1 kappa.

Measured: binding result

B1: murine 16G7 monoclonal antibody (antibody, V domains shown)
VH: QVQLQQPGSVLVRPGASVKLSCKASGYTFTSSWIHWAKQRPGQGLEWIGEIYPNSGNTNYNEKFKGKATLTVDISSSTAYVDLTSLTSEDSAVYYCARLGWLIPLDYWGQGTTLIVSS
VL: DIVLSQSPSSLAVSVGEKVTMSCKSSQSLLDGNDQKNYLAWYQQKPGQSPKLLMYWASTRESGVPDRFTGSGSGTDFTLTISSLKAEDLAVYYCQQFYDYPWTFGGGTKLEIKR
notes: also called mouse 16G7; m16G7
binds: all assays above
